This data set can be described thus: amyloid nucleation score (Sup35N fusion, yeast selection) (log enrichment); library NNK3; higher = more nucleation; inactive = no reads after selection. The procedure, abridged: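 DiMSum was used to calculate nucleation scores as log enrichment of output over input reads, centred on the mode score of non-aggregating sequences. Sequences with fewer than 100 input reads were not scored. Input and output came from Illumina sequencing of plasmid inserts in psi-negative yeast expressing peptides of 20 random codons fused to Sup35N, induced 24 hours with 100 μM copper sulfate and then grown 7 days at 30°C on medium lacking adenine and uracil.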

± gives the uncertainty stated by the source.

For WKYDKGNFRALVW, the amyloid nucleation score entry is “inactive”.

On to PIFWGSSDDYLCRWTLTMCH, for which the amyloid nucleation score was -0.3 ± 0.37.

For FYLKLMSLVMSMDIMLTSLC, the amyloid nucleation score result was “inactive”.

Take CCWYPYEYIINYASVTSQFP: the amyloid nucleation score was 1.56 ± 0.066.

The substance LLVTQGVYS gave an amyloid nucleation score of 1.17 ± 0.12.

As to CSNLIIMKNSIERQTAFRYN, the amyloid nucleation score came out at 0.284 ± 0.14.

For FGSNTGYVIEGRLAVGFEKL, the amyloid nucleation score result was “inactive”.

As for ICRRPYFSHLRSHRGFQNTD, the amyloid nucleation score entry is “inactive”.

As to NFLNCVFRYIYD, the amyloid nucleation score came out at 2.54 ± 0.067.

As to YNMFNTLVDRVQLRGLCYGV, the amyloid nucleation score entry is “inactive”.

On to CRSGCQ, for which the amyloid nucleation score entry is “inactive”.

Turning to RMWLD, the amyloid nucleation score entry was “inactive”.

As for GCRLPSWMYLVGELISFLSG, the amyloid nucleation score result was “inactive”.

TFRTTGM: the amyloid nucleation score result was “inactive”.

For the substance EVAWVYEYQL, the amyloid nucleation score result was “inactive”.

As to IFSFTLSLSFGVFLNMFSVD, the amyloid nucleation score entry is “inactive”.

As for NPIIKKSKLLKGHLSTCPMV, the amyloid nucleation score entry is “inactive”.

Turning to AGKDSPGTDHGGGKNNVRV, the amyloid nucleation score entry was “inactive”.

Consider PGVTSMSLSYPGFWVSPS, for which the amyloid nucleation score entry is “inactive”.

Take YIIFLTMAHF: the amyloid nucleation score was determined as 0.656 ± 0.29.

Consider GYTRVRVGCYVTVRKFWSMT, for which the amyloid nucleation score was -0.14 ± 1.

Turning to IFTLCITGGV, the amyloid nucleation score entry is “inactive”.

As for SIGYDCLQSGAFKSLHTMAL, the amyloid nucleation score result is “inactive”.

For IYTCSTRSSSFYRRMIRSFL, the amyloid nucleation score entry is “inactive”.

PETWDTRCGV: the amyloid nucleation score was 0.03 ± 0.88.

In the case of PLGSLHSATQRYVSRLGILS, the amyloid nucleation score entry was “inactive”.

For SFMITFLIMRHVASFA, the amyloid nucleation score result was “inactive”.

As for RLANKFSMTSGT, the amyloid nucleation score entry is “inactive”.

On to GGEGLVRQA, for which the amyloid nucleation score result is “inactive”.

As for LFKKVDTWSYLHGDTMLRGI, the amyloid nucleation score result was “inactive”.

Turning to VVLQDPGSLYEPRSHGTWFT, the amyloid nucleation score result is “inactive”.

Consider PVHGSKGPSGHVCRQCGFLM, for which the amyloid nucleation score result was “inactive”.

As for AWSDPSDQQPEQLRVVVDFL, the amyloid nucleation score entry was “inactive”.

Take FYMSNDCP: the amyloid nucleation score result was “inactive”.

Substance GCNYTVSTYILRVSDFTYYM yielded an amyloid nucleation score of -0.585 ± 0.76.

Consider FSDRRSINPELEF, for which the amyloid nucleation score result was “inactive”.

Turning to LIIVMFPAVCIVFDFNFTVF, the amyloid nucleation score result was “inactive”.

As for IRNGYSRICRIQRLGSMGM, the amyloid nucleation score result is “inactive”.

Consider SDGIYV, for which the amyloid nucleation score result is “inactive”.

As to KFGSLWRSNESDSSNSALRY, the amyloid nucleation score result was “inactive”.

In the case of QYGIKGRRVKCWLCWHGDVE, the amyloid nucleation score result was “inactive”.

Turning to TRWRLSVYERVGARRDTPLC, the amyloid nucleation score result was “inactive”.

Turning to VLISVLSRLRCMSGGLYTPN, the amyloid nucleation score result is “inactive”.

In turn, VRGIAIACWSQFCNWRICCR displayed an amyloid nucleation score of -0.231 ± 0.82.

Regarding APHLFLARYLYVCLYCENEW, the amyloid nucleation score is 1.25 ± 0.11.

Take FPGVLSLRYYLLRMRTQ: the amyloid nucleation score entry was “inactive”.

On to NRLWSYMGTVLFNPFWLVWR, for which the amyloid nucleation score entry is “inactive”.

Take RPRMPVRLWWYTKLGYFKDR: the amyloid nucleation score result was “inactive”.

The substance LLGTEIWGCRRISHSGVMRW came in with an amyloid nucleation score of -0.009 ± 0.43.

Substance AVINVILIIVSECRNSN came in with an amyloid nucleation score of 1.9 ± 0.075.

As for FFNVELLMIDCGFYEFHTDD, the amyloid nucleation score stood at 2.1 ± 0.056.

Take MFQPFYFHNFYISCKLA: the amyloid nucleation score was found to be 1.95 ± 0.092.

On to WVSSDRHSSLVNWKHGLSQE, for which the amyloid nucleation score entry is “inactive”.

For VYDNNYINFRSLLYMTKVSN, the amyloid nucleation score result was “inactive”.

RMFVSIRLLGTCCSDWSYYE gave an amyloid nucleation score of 1.78 ± 0.085.

Regarding DSSKV, the amyloid nucleation score result was “inactive”.

For the substance DVAWHRSACEYLFM, the amyloid nucleation score result was “inactive”.

For HKMRRAYLKECFVWDYVSCD, the amyloid nucleation score result is “inactive”.

FLSCCKGCLCCCQRPLSIYY: the amyloid nucleation score entry is “inactive”.

As to CWLSWYFATKLGAYWELSNG, the amyloid nucleation score result was “inactive”.

For the substance FDRSSGKRMVL, the amyloid nucleation score turned out to be 0.466 ± 0.21.

KKMLLWHI: the amyloid nucleation score entry was “inactive”.

As to WYGCVAWYVVKSMFYS, the amyloid nucleation score result is “inactive”.

The substance YLVYRNVTMVCPDRQH had an amyloid nucleation score of 0.375 ± 0.27.

As for RSDLCFC, the amyloid nucleation score result is “inactive”.

For LKSMLLSMRSIIEYCQQMVG, the amyloid nucleation score result was “inactive”.

For GLNLR, the amyloid nucleation score entry is “inactive”.

Take HNRRKR: the amyloid nucleation score was -0.16 ± 0.4.

For the substance RTAMVVDSYAKSFMSQASVL, the amyloid nucleation score result was “inactive”.

Regarding GMAWLVGWLGLRLLTYFGYR, the amyloid nucleation score entry was “inactive”.

Turning to PHMQCLINF, the amyloid nucleation score result is “inactive”.

CSFIAGAPTSFWVVGLCWKY: the amyloid nucleation score is -0.031 ± 0.72.

In the case of CNCVRWWRSSSTTNG, the amyloid nucleation score entry was “inactive”.

Take ALTWMRMYALCNIEVNHYST: the amyloid nucleation score was 2.07 ± 0.066.

Take ARVRFSLKRSCMLVHA: the amyloid nucleation score result was “inactive”.

As for DSSKFLLTCHLWCG, the amyloid nucleation score result is “inactive”.

Consider LGRKIRFFGYSGWGCMIREY, for which the amyloid nucleation score result is “inactive”.

For the substance RDRLKVLLLIFHSRDDTRTK, the amyloid nucleation score entry was “inactive”.

Turning to VLLTVECLFYSS, the amyloid nucleation score entry was “inactive”.

For VSAFFRSKG, the amyloid nucleation score entry was “inactive”.

As for LVIACTGYVSLCR, the amyloid nucleation score entry was “inactive”.

Regarding NVGITMGCNRTPCLSTWFAV, the amyloid nucleation score result is “inactive”.

Take FMWCYMKYCAVHAFDLSWKV: the amyloid nucleation score entry is “inactive”.

As to YGLHTGKSKALQQRIVW, the amyloid nucleation score entry was “inactive”.

On to APWVMLVVSFPRKESRSFGM, for which the amyloid nucleation score result was “inactive”.

On to IVERKVRPAHFYYSLVYEQS, for which the amyloid nucleation score entry was “inactive”.

Substance YFINMRKYCTCPDMCEVLRI showed an amyloid nucleation score of 0.574 ± 0.18.

Consider YLYCRAWIWLDNSMLSWS, for which the amyloid nucleation score result is “inactive”.

As for SLWYIRSLLCFEVLSLFHLL, the amyloid nucleation score result is “inactive”.

In the case of IYPVNFGWLLGFCAHPAIYD, the amyloid nucleation score entry is “inactive”.

For FGIWFGRNLGVGMDTKMSRF, the amyloid nucleation score entry was “inactive”.

On to QFLIVGFAYLPSLA, for which the amyloid nucleation score result was “inactive”.

Take VKIFS: the amyloid nucleation score result was “inactive”.

For the substance MESRGALYLSFRGRNCSSTQ, the amyloid nucleation score is 0.371 ± 0.19.

For the substance GSVGSRADVFLGCGDEWRQA, the amyloid nucleation score entry is “inactive”.

TINRLLICI had an amyloid nucleation score of -0.14 ± 0.57.

On to YCVQCR, for which the amyloid nucleation score entry is “inactive”.

With ATIGRVRGLKDPHLYQCAFM, the amyloid nucleation score entry was “inactive”.

As to RIMLVYCMGSRGIAMFCQHN, the amyloid nucleation score entry was “inactive”.

Turning to LGKRVGCNCICAPRSAGDGI, the amyloid nucleation score result was “inactive”.

On to QFSSS, for which the amyloid nucleation score was -1.13 ± 1.3.

CLVVKLFHTSSCMNSYMRGG registered an amyloid nucleation score of 1.67 ± 0.11.

Consider PYGKFRLNPLD, for which the amyloid nucleation score was found to be 0.652 ± 0.17.

Take SWMYEFGSGTVKGGGKSELD: the amyloid nucleation score entry was “inactive”.

For the substance VRLNALIHDIVMMVWGTMHG, the amyloid nucleation score result was “inactive”.

Substance LTRRSRLWHMSSYTWKKDVI came in with an amyloid nucleation score of 0.084 ± 0.5.

For the substance SRWIGYSFSGGSGGFVGRKA, the amyloid nucleation score entry was “inactive”.

Turning to VFSDHVLSF, the amyloid nucleation score entry was “inactive”.

With IVCYLSFASLDDLRTRHMCT, the amyloid nucleation score result was “inactive”.

With TSGGTFQDATSHNSNSHMWK, the amyloid nucleation score result is “inactive”.

On to NWGLIMVSVEEDTDLGGSGM, for which the amyloid nucleation score was -0.114 ± 0.88.

Turning to CCFHLFTYCKGKARYTLWSV, the amyloid nucleation score entry was “inactive”.

In turn, LRRTIYFTDDRCLWLDFAPL displayed an amyloid nucleation score of 0.272 ± 0.43.

Regarding SMLVELVFSLQTQSSGSSGR, the amyloid nucleation score is -0.059 ± 0.43.

In turn, LPPFCGSGCLSGLLRSKTRR registered an amyloid nucleation score of 0.617 ± 0.19.

As for MVTRMCYIACLVFRVWAMCR, the amyloid nucleation score result is “inactive”.

Turning to SVYECNLIRDFIDRQGPNLA, the amyloid nucleation score came out at 2.25 ± 0.058.

WVVRKVHSLSHCLGCHPESW displayed an amyloid nucleation score of 0.231 ± 0.57.

Consider VCFFGLYVLKDN, for which the amyloid nucleation score entry is “inactive”.

As to RLLLMSRSLMIRFVLSLVLE, the amyloid nucleation score entry was “inactive”.

Take NTSAPSNATAAFKAITN: the amyloid nucleation score result was “inactive”.

As for VLIYDVCCALNLCCGFRTFG, the amyloid nucleation score came out at 1.77 ± 0.081.

In the case of NASIRDGNMTFFSQAVTRLA, the amyloid nucleation score entry is “inactive”.

Take ISSFGARNTPWRTLSPAPEG: the amyloid nucleation score turned out to be 0.184 ± 0.32.

In the case of VSYTYAGYSIRYIVFSS, the amyloid nucleation score result was “inactive”.

On to LSLRCEFSSASSGCTSGQRR, for which the amyloid nucleation score result was “inactive”.

For the substance MVHAVPHMVDGGS, the amyloid nucleation score entry was “inactive”.

For WLMRARGYGNVRSPVVFGKL, the amyloid nucleation score entry is “inactive”.

With GWRRPNSYDLEAEFMRKSGG, the amyloid nucleation score entry is “inactive”.

With NKRGNCVEKDDCFVMYEWNM, the amyloid nucleation score entry was “inactive”.

Turning to LYVTILNVLLLHMTHSLFSG, the amyloid nucleation score result was “inactive”.
